Measured values: patent US20070031442A1

Legend:
soluble CD8αα (human) [1] = target: soluble CD8αα (human) (UniProt P01732); assay: surface plasmon resonance
soluble CD8αα (human) [2] = target: soluble CD8αα (human) (UniProt P01732); assay: method not given
soluble CD8αα (human) [3] = target: soluble CD8αα (human) (UniProt P01732); assay: surface plasmon resonance, biotinylated pMHCI monomer
soluble CD8αα (human) [4] = target: soluble CD8αα (human) (UniProt P01732); assay: surface plasmon resonance with sCD8αα wt; mean KD (n=3) printed over the bar, error bar drawn; sheet caption 'HLA A*0201 [..] tetramers'

Substance	Kd (soluble CD8αα (human) [1])	Kd (soluble CD8αα (human) [2])	Kd (soluble CD8αα (human) [3])	Kd (soluble CD8αα (human) [4])
245A substituted HLA A*68011 biotinylated pMHCI (from UniProt P61769 21-119) (peptide-MHC)	102 µM			
A2Kb chimeric class I pMHCI (HLA A2 with the α3 domain of murine H-2K^b) (from UniProt P61769 21-119) (peptide-MHC)		< 5 µM		
wild type HLA A*0201 biotinylated pMHCI monomer (from UniProt P61769 21-119) (peptide-MHC)		128 µM	135 µM	128 µM
wild type HLA A*68011 biotinylated pMHCI (from UniProt P61769 21-119) (peptide-MHC)	980 µM			
